Assay [1] deals with N332A (HIV-1). Nature of the assay: gp120 capture ELISA.
Assay [2] has as its target monomeric gp120^JRCSF (HIV-1 strain JRCSF) (UniProt P20871). The assay is described as follows: gp120 capture ELISA. (ELISA stands for enzyme-linked immunosorbent assay.)
For assay [3], the target named is gp120 Resurfaced Stabilized Core (RSC3). Nature of the assay: ELISA on coated RSC3.
Assay [4] deals with CAAN.A2 (HIV-1).
Assay [5] concerns the target gp120 of X2088 (HIV-1 strain X2088.c9).
The target in assay [6] is 6631.V3.C10 (HIV-1).
The target of assay [7] is T250-4 (HIV-1).
Assay [8] deals with N262A (HIV-1). The assay is described as follows: gp120 capture ELISA.
Assay [9] has as its target D167N (HIV-1). The assay is described as follows: gp120 capture ELISA.
The target of assay [10] is T283A (HIV-1). Nature of the assay: gp120 capture ELISA.
In assay [11] the target is G471A (HIV-1). Nature of the assay: gp120 capture ELISA.
The target in assay [12] is I371A (HIV-1). The assay is described as follows: gp120 capture ELISA.
Assay [13] deals with G366A (HIV-1). Nature of the assay: gp120 capture ELISA.
The target in assay [14] is P369A (HIV-1). The assay is described as follows: gp120 capture ELISA.
Assay [15] has as its target E370A (HIV-1). The assay is described as follows: gp120 capture ELISA.
Assay [16] has as its target S365A (HIV-1). The assay is described as follows: gp120 capture ELISA.
The target of assay [17] is R469A (HIV-1). The assay is described as follows: gp120 capture ELISA.
The target in assay [18] is N280A (HIV-1). Nature of the assay: gp120 capture ELISA.
Assay [19] addresses G367A (HIV-1). The assay is described as follows: gp120 capture ELISA.
For assay [20], the target named is D368A (HIV-1). Nature of the assay: gp120 capture ELISA.
Assay [21] concerns the target I467A (HIV-1). The assay is described as follows: gp120 capture ELISA.
For assay [22], the target named is V372A (HIV-1). The assay is described as follows: gp120 capture ELISA.
Assay [23] deals with D474A (HIV-1). Nature of the assay: gp120 capture ELISA.
The target in assay [24] is R476A (HIV-1). The assay is described as follows: gp120 capture ELISA.
In assay [25] the target is K282A (HIV-1). Nature of the assay: gp120 capture ELISA.
Assay [26] has as its target G473A (HIV-1). Nature of the assay: gp120 capture ELISA.
Assay [27] has as its target D279A (HIV-1). The assay is described as follows: gp120 capture ELISA.
The target of assay [28] is N197T (HIV-1). Nature of the assay: gp120 capture ELISA.
Assay [29] deals with M373A (HIV-1). Nature of the assay: gp120 capture ELISA.
Assay [30] addresses G472A (HIV-1). The assay is described as follows: gp120 capture ELISA.
The target in assay [31] is M475A (HIV-1). The assay is described as follows: gp120 capture ELISA.
The target of assay [32] is D457A (HIV-1). Nature of the assay: gp120 capture ELISA.
Assay [33] addresses HIV-1 YU2 gp120 (HIV-1 strain YU2) (UniProt P35961). Nature of the assay: competition ELISA on gp120 YU2, unlabelled CD4-Ig against CD4Ig-biotin.

The text below walks through data of US20180298083A1.

In general, EC50 (read off the curve) refers to the concentration that produces a half-maximal response. High values mean weaker potency, low ones greater potency. For the substance 2G12 (antibody), the Binding affinity relative to WT (%) in [1] was determined as 3%; in [2], 100%. The substance also showed a half-maximal effective concentration (EC50 (read off the curve)) in assay [3] of 0.03 mg/L.
In the case of 12A21 (antibody), the neutralisation IC50 was 0.539 mg/L in assay [4], more than 50 mg/L in [5], 2.37 mg/L in assay [6] and more than 50 mg/L in assay [7]. The Binding affinity relative to WT (%) in [8] is 167%; in assay [9], 108%; in assay [10], 68%; in [11], 162%; in assay [1], 206%; in assay [12], 17%. Further, the Binding affinity relative to WT (%) in [13] came to 6%; in [14] it was 122%; in [15] it was 16%; in assay [16], 454%; in [17] it was 66%; in assay [18], 174%. Also, the Binding affinity relative to WT (%) in assay [19] turned out to be 2%; in [20], 30%; in assay [21], 49%; in assay [22] it was 36%; in [23], 19%; in assay [24], 73%. The Binding affinity relative to WT (%) in assay [25] turned out to be 29%; in assay [26] it was 53%; in assay [2], 100%; in [27], 188%; in [28] it was 131%; in assay [29], 63%. The Binding affinity relative to WT (%) in [30] was determined as 97%; in assay [31] it was 76%; in assay [32], 23%.
As for “CD4-Ig (from UniProt P01730 26-203) (Fc fusion)”, the IC50 (read off the curve) in assay [33] worked out at 0.06 mg/L. Also, the Binding affinity relative to WT (%) in assay [8] amounted to 2%; in assay [9] it was 58%; in [10], 55%; in [11] it was 141%; in assay [1], 57%; in assay [12] it was 12%. Besides, the Binding affinity relative to WT (%) in assay [13] turned out to be 7%; in assay [14], 54%; in [15], 5%; in assay [16] it was 34%; in assay [17], 7%; in assay [18] it was 75%. For the same substance, the Binding affinity relative to WT (%) in assay [19] was found to be 3%; in [20], 5%; in [21], 115%; in assay [22], 73%; in assay [23], 45%; in assay [24] it was 79%. The Binding affinity relative to WT (%) came out at 53% in assay [25]; 0% in assay [26]; 49% in [27]; 25% in assay [28]; 91% in assay [29]; 2% in assay [30]. The Binding affinity relative to WT (%) in [31] came out at 117%; in assay [32], 3%.
b12 (antibody): the EC50 (read off the curve) in assay [3] turned out to be 0.01 mg/L.
